For orientation: pKd means −log10 of the Kd, conventionally taken in molar units. Read a high pKd as a small Kd.

pKd: −log10 of the molar value. A value given as a limit tells only on which side of the number the result lay.

11 sequences from the Immune Epitope Database (IEDB) can be followed below.

The target of assay [1] is HLA-A*01:01. In words: IEDB peptide-MHC binding, purified MHC/direct/fluorescence; filed as Kd, often an IC50 or EC50 that approximates it; ≥ and ≤ were set here for values at or beyond the usual limits of such assays.
Assay [2] deals with HLA-A*02:01. The assay is described as above.
Assay [3] deals with HLA-A*03:01. The description is as above.
In the next assay the target is HLA-A*11:01. The assay is described as above.
The next assay concerns the target HLA-A*24:03. The assay is described as above.
For assay [4], the target named is HLA-A*26:01. The assay is described as above.
For another assay, the target named is HLA-A*30:01. The assay is described as above.
The target in assay [5] is HLA-A*31:01. The assay is described as above.
Assay [6] concerns the target HLA-A*69:01. The assay is described as above.
For another assay, the target named is HLA-B*07:02. The assay is described as above.
Assay [7] addresses HLA-B*08:01. The assay is described as above.
The target in assay [8] is HLA-B*15:01. Described as above.
In a further assay the target is HLA-B*27:05. The description is as above.
A further assay addresses HLA-B*40:01. Described as above.
Assay [9] deals with HLA-B*58:01. Described as above.
Another assay concerns the target HLA-B*35:01. Nature of the assay: IEDB peptide-MHC binding, purified MHC/competitive/fluorescence; filed as Kd, often an IC50 or EC50 that approximates it; ≥ and ≤ were set here for values at or beyond the usual limits of such assays.
The next assay has as its target HLA-B*46:01. The description is as above.
Assay [10] addresses HLA-B*58:01. The assay is described as above.
Assay [11] addresses HLA-A*03:01. Described as above.
For assay [12], the target named is HLA-A*31:01. The assay is described as above. As to conditions: source organism: Yersinia pestis Nepal516.
In assay [13] the target is HLA-B*08:01. The description is as above.
In assay [14] the target is HLA-A*01:01. The description is as above. As to conditions: source organism: Salmonella enterica subsp. enterica serovar Typhi.
In assay [15] the target is HLA-B*15:01. Described as above.
The target in the next assay is HLA-B*44:02. In words: IEDB peptide-MHC binding, purified MHC/direct/fluorescence; filed as Kd, often an IC50 or EC50 that approximates it; ≥ and ≤ were set here for values at or beyond the usual limits of such assays.
Assay [16] has as its target HLA-A*02:01. Nature of the assay: IEDB peptide-MHC binding, purified MHC/competitive/fluorescence; filed as Kd, often an IC50 or EC50 that approximates it; ≥ and ≤ were set here for values at or beyond the usual limits of such assays.
Another assay addresses HLA-A*02:03. In words: IEDB peptide-MHC binding, purified MHC/direct/fluorescence; filed as Kd, often an IC50 or EC50 that approximates it; ≥ and ≤ were set here for values at or beyond the usual limits of such assays. Conditions: source organism: Orthohantavirus tulaense.
In the next assay the target is HLA-A*02:11. Described as above. Conditions: source organism: Orthohantavirus tulaense.
For the next assay, the target named is HLA-A*02:12. Described as above. Conditions: source organism: Orthohantavirus tulaense.
For the next assay, the target named is HLA-A*02:16. The assay is described as above. As to conditions: source organism: Orthohantavirus tulaense.
A further assay deals with HLA-A*02:19. The description is as above. Conditions: source organism: Orthohantavirus tulaense.
The next assay deals with HLA-A*68:02. Described as above. As to conditions: source organism: Orthohantavirus tulaense.
The target in assay [17] is HLA-A*26:01. In words: IEDB peptide-MHC binding, purified MHC/competitive/fluorescence; filed as Kd, often an IC50 or EC50 that approximates it; ≥ and ≤ were set here for values at or beyond the usual limits of such assays. As to conditions: source organism: Orthohantavirus tulaense.
In assay [18] the target is HLA-A*69:01. Described as above. Conditions: source organism: Orthohantavirus tulaense.
The target in a further assay is HLA-B*27:03. The assay is described as above. As to conditions: source organism: Orthohantavirus tulaense.
Another assay deals with HLA-B*57:01. Described as above. As to conditions: source organism: Orthohantavirus tulaense.
[19] abbreviates: source organism: Pseudomonas aeruginosa UCBPP-PA14.
Where [20] appears, read: source organism: Pseudomonas aeruginosa.
The mark [21] stands for this setting: source organism: Mycobacterium tuberculosis F11.
[22] abbreviates: source organism: Yersinia pestis Nepal516.
[23] abbreviates: source organism: Salmonella enterica subsp. enterica serovar Typhi.
Where [24] appears, read: source organism: Giardia lamblia ATCC 50803.
Setting [25] is: source organism: Campylobacter jejuni.
Where [26] appears, read: source organism: Escherichia coli.
The mark [27] stands for this setting: source organism: Escherichia coli 536.
Where [28] appears, read: source organism: Orthohantavirus tulaense.

For RDYRTISPR, the pKd with HLA-A*01:01 [1] (setting [19]) was at most 4.70; with HLA-A*02:01 [2] (setting [19]), at most 4.70; in the assay with HLA-A*03:01 [3] (setting [20]) it was 5.46; in the assay with HLA-A*11:01 (setting [20]) it was 5.06; with HLA-A*24:03 (setting [19]), at most 4.70; with HLA-A*26:01 [4] (setting [19]), at most 4.70. Moreover, the pKd with HLA-A*30:01 (setting [20]) is 5.70; with HLA-A*31:01 [5] (setting [20]), 7.34; with HLA-A*69:01 [6] (setting [19]), at most 4.70; in the assay with HLA-B*07:02 (setting [19]), at most 4.70; with HLA-B*08:01 [7] (setting [19]) it was at most 4.70; with HLA-B*15:01 [8] (setting [19]), at most 4.70. The pKd with HLA-B*27:05 (setting [19]), in the assay with HLA-B*40:01 (setting [19]) and with HLA-B*58:01 [9] (setting [19]) was at most 4.70 each time.

For GPGEVSAAM, the negative-log Kd (pKd) was 6.84 with HLA-B*07:02 (source organism: Mycobacterium tuberculosis str. Haarlem) and 8.41 with HLA-B*35:01 (source organism: Mycobacterium tuberculosis variant bovis BCG str. Pasteur 1173P2).

On to FSIPVTFSY, for which the pKd with HLA-A*01:01 [1] (source organism: Mycobacterium tuberculosis) was 6.50; with HLA-B*35:01 (setting [21]) it was at least 10.00; with HLA-B*46:01 (setting [21]), 7.16; with HLA-B*58:01 [10] (setting [21]), 9.15.

For FIRLRFAFK, the negative-log Kd (pKd) with HLA-A*03:01 [11] (setting [22]) was at most 4.70; with HLA-A*31:01 [12] it was 7.76; in the assay with HLA-B*08:01 [13] (setting [22]), at most 4.70.

Regarding MTAAQIRRY, the negative logarithm of the Kd (pKd) in the assay with HLA-A*01:01 [14] is 6.61; with HLA-A*03:01 [11] (setting [23]), 5.46; with HLA-B*15:01 [15] (setting [23]) it was 6.78; with HLA-B*58:01 [10] (setting [23]), at most 4.70.

In the assay with HLA-B*08:01 [13] (source organism: Escherichia coli O139:H28 str. E24377A), HPKRTERAG showed a pKd of at most 4.70.

VYAYPSGEK: the negative logarithm of the Kd (pKd) was at most 4.70 in the assay with HLA-A*01:01 [1] (setting [24]); at most 4.70 in the assay with HLA-A*02:01 [2] (setting [24]); 5.47 in the assay with HLA-A*03:01 [3] (setting [24]); 5.11 in the assay with HLA-A*11:01 (setting [24]); at most 4.70 with HLA-A*24:03 (setting [24]); at most 4.70 in the assay with HLA-A*26:01 [4] (setting [24]). The pKd with HLA-A*30:01 (setting [24]) is 5.33; in the assay with HLA-A*69:01 [6] (setting [24]), at most 4.70; with HLA-B*07:02 (setting [24]), at most 4.70; with HLA-B*08:01 [7] (setting [24]), at most 4.70; with HLA-B*15:01 [8] (setting [24]), at most 4.70; with HLA-B*27:05 (setting [24]), at most 4.70. The pKd with HLA-B*40:01 (setting [24]), with HLA-B*44:02 (setting [24]) and in the assay with HLA-B*58:01 [9] (setting [24]) was at most 4.70 throughout.

As to VKKLWGHLP, the pKd in the assay with HLA-A*01:01 [1] (setting [25]), with HLA-A*02:01 [2] (setting [25]), with HLA-A*03:01 [3] (setting [25]), with HLA-A*11:01 (setting [25]), in the assay with HLA-A*24:03 (setting [25]) and with HLA-A*26:01 [4] (setting [25]) was at most 4.70 in each case. Moreover, the pKd with HLA-A*30:01 (setting [25]), with HLA-A*31:01 [5] (setting [25]), with HLA-A*69:01 [6] (setting [25]), in the assay with HLA-B*15:01 [8] (setting [25]), with HLA-B*27:05 (setting [25]) and with HLA-B*40:01 (setting [25]) was at most 4.70 throughout. The pKd with HLA-B*44:02 (setting [25]) and with HLA-B*58:01 [9] (setting [25]) was at most 4.70 in each case.

With WCRVGRGTI, the pKd is at most 4.70 with HLA-A*01:01 [1] (setting [26]); at most 4.70 with HLA-A*02:01 [2] (setting [26]); at most 4.70 in the assay with HLA-A*03:01 [3] (setting [26]); at most 4.70 with HLA-A*11:01 (setting [26]); 4.86 in the assay with HLA-A*24:03 (setting [26]); at most 4.70 in the assay with HLA-A*26:01 [4] (setting [26]). The negative-log Kd (pKd) was at most 4.70 with HLA-A*30:01 (setting [26]); at most 4.70 in the assay with HLA-A*31:01 [5] (setting [26]); at most 4.70 with HLA-A*69:01 [6] (setting [26]); 5.33 in the assay with HLA-B*07:02 (setting [26]); at most 4.70 with HLA-B*08:01 [7] (setting [26]); at most 4.70 with HLA-B*15:01 [8] (setting [26]). For the same sequence, the negative logarithm of the Kd (pKd) with HLA-B*27:05 (setting [26]) is at most 4.70; with HLA-B*40:01 (setting [26]) it was at most 4.70; with HLA-B*58:01 [9] (setting [26]) it was at most 4.70; with HLA-B*35:01 (source organism: Escherichia coli str. K-12 substr. MG1655) it was at most 5.30.

Turning to WLLLRQLPI, the results for the pKd in the assay with HLA-A*02:01 [16] (setting [27]), with HLA-B*08:01 [13] (setting [27]) and with HLA-B*15:01 [15] (setting [27]) were 7.84, 7.34 and at most 4.70, respectively.

Consider FGAAVSLLF, for which the pKd in the assay with HLA-A*02:03, in the assay with HLA-A*02:11, in the assay with HLA-A*02:12, with HLA-A*02:16, with HLA-A*02:19 and in the assay with HLA-A*03:01 [3] (setting [28]) was at most 4.70 each time. Also, the pKd in the assay with HLA-A*68:02 was at most 4.70; in the assay with HLA-B*15:01 [8] (source organism: Orthohantavirus andesense), 7.27; with HLA-A*02:01 [16] (setting [28]), at most 4.70; with HLA-A*26:01 [17] it was at most 4.70; with HLA-A*69:01 [18] it was at most 4.70; in the assay with HLA-B*27:03 it was at most 4.70. For the same sequence, the pKd with HLA-B*35:01 (setting [28]) is 8.57; with HLA-B*46:01 (setting [28]), at most 4.70; with HLA-B*57:01, at most 4.70; with HLA-B*58:01 [10] (setting [28]), 8.89.
